Data on one substance can be found in PMC8287548.

pKd: −log10 of the molar value.

Test [1] concerns the target SpyCatcher-HPF (not stated | Helicobacter pylori). Put plainly: SPR. A general note: SPR reads the build-up and loss of mass on a sensor chip optically.
Test [2] shares this target. Briefly: covalent conjugation.

The term pKd denotes the Kd on a negative log10 scale, so that one unit is a factor of ten. High values mean a small Kd, low ones a large Kd. The substance “SpyTag-RBD (from UniProt P0DTC2 319-541)” showed a pKd in test [1] of 5.57. In addition, the conjugation efficiency in test [2] is less than 40%.
